Assay results: paper PMC3100782 (Biochemistry, 2011)
Non-standard residues stand in square brackets, D forms with d. pS = N[C@@H](COP(=O)(O)O)C(=O)O

B1: fluorescent BACH1-derived peptide (Fluorescein-GGSRSTpSPTFNK-NH2) (peptide)
peptide: Fluorescein-GGSRST[pS]PTFNK-NH2

Tests used:
[1] = molecular target: fluorescent BACH1-derived peptide (Fluorescein-GGSRSTpSPTFNK-NH2); assay: fluorescence polarisation
[2] = molecular target: wild-type BRCA1 BRCT domain (human, UniProt P38398); assay: fluorescence polarisation

Molecule | Kd [1] [µM] | Kd [2] [µM]
BRCA1 BRCT domain R1699W variant (from UniProt P38398) (domain or fragment) | > 200 | –
B1 | – | 1.2 ± 0.1
